Consider 12 molecules from patent US20210261685A1 (Alector, published 2021).

In assay [1] the target is T1, murine MerTK extracellular domain (ECD), recombinant (mouse, UniProt Q60805 19-497).
T1 construct: also called moMerTK; mouse MerTK; not shown: polyHis tag or TEVS/Thrombin/murine IgG2a Fc tag
T1 sequence: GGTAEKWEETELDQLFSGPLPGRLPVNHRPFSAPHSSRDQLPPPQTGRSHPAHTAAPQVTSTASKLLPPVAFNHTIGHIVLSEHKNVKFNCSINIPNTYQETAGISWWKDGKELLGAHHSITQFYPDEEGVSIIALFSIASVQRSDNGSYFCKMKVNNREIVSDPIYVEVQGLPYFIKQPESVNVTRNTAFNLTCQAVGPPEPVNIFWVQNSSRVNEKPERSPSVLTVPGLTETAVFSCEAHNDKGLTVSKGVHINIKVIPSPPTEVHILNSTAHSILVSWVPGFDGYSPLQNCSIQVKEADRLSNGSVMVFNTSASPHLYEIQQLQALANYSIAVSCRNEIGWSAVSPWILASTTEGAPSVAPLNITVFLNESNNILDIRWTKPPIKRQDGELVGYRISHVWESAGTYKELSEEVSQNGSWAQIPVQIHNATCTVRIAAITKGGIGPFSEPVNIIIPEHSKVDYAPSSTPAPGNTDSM
Put plainly: SPR, Carterra LSA, antibody immobilised. The method, then:
Binding kinetics of human anti-MerTK IgG1 LALAPS antibodies of the present disclosure to human, cyno, and murine MerTK were evaluated using a Carterra LSA instrument (Carterra, Salt Lake City, Utah). Briefly, anti-MerTK antibodies were prepared by diluting to 10 μg/ml in 10 mM Acetate, pH 4.25 (Carterra), at 300 μl/well. A HC200M sensor chip (Carterra) was activated using the single channel flow cell with a 7-minute injection of a 1:1:1 mixture of 100 mM MES pH 5.5, 100 mM sulfo-NHS, 400 mM EDC (all reconstituted in MES pH 5.5; 100 μl of each mixed in vial immediately before running assay). After switching to the multi-channel array flow cell, the antibodies were injected over the activated chip in a 96-spot array for 15 minutes. The remaining unconjugated active groups on the chip were then blocked by injecting 1M Ethanolamine pH 8.5 (Carterra) for 7 minutes using the single channel flow cell.
After priming with running buffer (HBS-TE, Carterra) with 0.5 mg/ml BSA (Sigma), the immobilized anti-MerTK antibodies were tested for their ability to bind to several forms of recombinant MerTK extracellular domain, including human, cynomolgus, and mouse orthologs as described above. Estimates of affinity were generated by injecting each analyte over the entire antibody array using the single channel flow cell. MerTK analytes were diluted to 33.3, 100, and 300 nM in running buffer, and injected in serial from lowest to highest concentration without regeneration. Two buffer blanks were run between each series (one species per series). Data were processed and analyzed using NextGenKIT high-throughput kinetics analysis software (Carterra).
The equilibrium dissociation constants (KD) were then calculated from the fitted association and dissociation rate constants (k-on and k-off) for anti-MerTK antibodies of the present disclosure. Binding kinetic analysis was also performed on anti-MerTK antibodies H1 (BioLegend, Clone ID: 590H11G1E3), H2 (R&D systems, Clone ID: 125518), M6 (WO2016/106221), and CDX AB2000-A7 hIgG1 (WO2019/084307).

Assay [2] addresses T2, Recombinant human MerTK human Fc Chimera protein (R&D systems, Cat #391-MR-100) (human, UniProt Q12866 26-499, limits assumed).
T2 construct: Bought; also called recombinant human MerTK protein; MerTK-Fc
T2 sequence: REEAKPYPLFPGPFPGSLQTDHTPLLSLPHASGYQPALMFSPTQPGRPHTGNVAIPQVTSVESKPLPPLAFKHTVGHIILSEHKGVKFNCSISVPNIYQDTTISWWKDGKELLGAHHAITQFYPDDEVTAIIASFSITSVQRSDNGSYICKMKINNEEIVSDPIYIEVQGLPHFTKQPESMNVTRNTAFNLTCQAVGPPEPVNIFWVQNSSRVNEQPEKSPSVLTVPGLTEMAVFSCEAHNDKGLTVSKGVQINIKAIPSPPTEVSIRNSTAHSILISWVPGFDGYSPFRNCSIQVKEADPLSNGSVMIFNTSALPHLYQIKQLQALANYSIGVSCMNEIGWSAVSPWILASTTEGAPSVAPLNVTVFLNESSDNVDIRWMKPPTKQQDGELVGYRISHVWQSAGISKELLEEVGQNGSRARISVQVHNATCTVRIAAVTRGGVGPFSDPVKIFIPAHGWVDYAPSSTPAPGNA
Put plainly: competition ELISA, His-ProS on captured MerTK-Fc. The method, then: Rabbit anti-human IgG polyclonal antibody (Jackson ImmunoResearch, Cat #309-005-008) was captured to a high-protein binding plate at 2 μg/ml 4° C. overnight. After washing with 0.05% Tween20 in PBS three times, 5% BSA in PBS was added for 1 hour. Recombinant human MerTK human Fc Chimera protein (R&D systems, Cat #391-MR-100) was added at 2 μg/ml for 1 hour and the plates were then washed. Anti-MerTK antibodies were titrated to final concentration range of between 66.6 nM to 4 pM and then 40 μl of serially diluted antibody and 40 μl of His tag-conjugated recombinant Gas6 protein (R&D systems, Cat #885-GSB-050) at 3 μg/ml or His tag-conjugated recombinant ProS protein (R&D systems, Cat #9489-PS-100) at 20 μg/ml. After a further incubation for 1 hour, plates were washed and incubated for 1 hour with HRP-conjugated anti-6×His tag antibody (Abcam, Cat #ab1187). Plates were then washed and an HRP substrate (TMB) was used to develop the plates. After sufficient color change was observed, the reaction was stopped by adding 50 μl 2N H₂SO₄ and the OD was measured using a spectrophotometer (BioTek).
From these experiments, IC50 values [nM] were determined using OD450 values obtained from the dose-response curves analyzed with Prism software. Table 14 and Table 15 show IC50 values determined for anti-MerTK antibody blocking of Gas6 ligand binding and ProS ligand binding to MerTK. […] Dashes indicate lack of significant blocking; “n.a.” indicates data not available.
In general terms: In an ELISA, binding on a coated surface is turned into a signal by an enzyme label.

B1: MTK-33 (antibody, human IgG1, V domains shown)
VH: QVQLQQPGPELVRPGTSVKLSCKASGYTFTSYWMHWIKQRPGQGLEWIGVIDPSDNYINYNQKFKGKATLTVDTSSSTAYLQLSSLTSEDSAVYYCAREAGTRGYFDYWGQGTTLTVSS
VL: SIVMTQTPKFLLVSAGDRVIITCKASQSVSNTVAWYQQKPGQSPKLLIYYASNRYTGVPDRFTGSGYGTDFTFTISTVQAEDLAVYFCQQDYRSPFTFGSGTQLEMK
What is called Kd is the equilibrium constant for the complex coming apart. As a reminder, the IC50 is the midpoint of a concentration-inhibition curve. For B1, in assay [1], the Kd worked out at 75 nM. Also, in assay [2], the IC50 turned out to be 0.601 nM.

B2: MTK-19 (antibody, human IgG1, V domains shown)
VH: EVQLQQSGPELVKPGASVKISCKTSGYTFTEYTMHWVKQSHGKSLEWLGGFNPNNVITSYNQRFQGRATLTVDKSSSTAYMELRSLTSDDSAVYYCTRGDLLWSLLLPGNYFDYWGQGTTLTVSS
VL: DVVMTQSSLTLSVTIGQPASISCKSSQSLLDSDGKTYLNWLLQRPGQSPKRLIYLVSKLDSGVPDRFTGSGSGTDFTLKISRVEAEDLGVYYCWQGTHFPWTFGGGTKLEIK
With B2, the Kd in assay [1] was 130 nM. The IC50 in assay [2] is 11.3 nM.

B3: MTK-01 (antibody, human IgG1, V domains shown)
VH: QIQLVQSGPELKKPGETVKISCKASGYTFTNYGMNWVKQAPGKGLKCMGWINTYTGEPTYADDFKGRFAFSLETSATTAYLQINNLKNEDTATYFCARRDRYTWFAYWGQGTLVTVSA
VL: QIVLSQSPAILSASPGEKVTMTCRASSSVSYMHWYQQKPGSSPKPWIYATSNLASGVPARFSGSGSGTSYSLTISRVEAEDAATYYCQQWSSNPPTFGGGTKLEIK
Regarding B3, the binding result in assay [1] is recorded as “no binding (tested: 300 nM)”. Moreover, the IC50 in assay [2] was found to be 2.85 nM.

B4: MTK-29 (antibody, human IgG1, V domains shown)
VH: QIQLVQSGPELKKPGETVKISCKSSGFTFTTYGMSWVKQAPGKGLKWMGWINTYSGVPTYTDDFKGRFAFSLETSASTASLQINNLKNEDTATYFCARYTNYGYFDYWGQGTTLTVSS
VL: QIVLSQSPAILSASPGEKVTMTCRATSSVGYMHWYQQKPGSSPKPWIYATSNLASGVPARFSGSGSGTSYSLTISRVEAEHAATYYCQQWGSNPFTFGSGTKLEIK
Turning to B4, the IC50 in assay [2] is 2.66 nM.

B5: MTK-04 (antibody, human IgG1, V domains shown)
VH: QIQLVQSGPELKKPGETVKISCKASGYTFTNYGMNWVKQAPGKGLKCMGWINTYTGEPTYADDFKGRFAFSLETSASTAYLQINNLKNEDMATYFCAKYDNYAWFAYWGQGTLVTVSA
VL: QIVLSQSPAFLSASPGEKVTMTCRASSSVSYMHWYLQKPGSSPKPWIYATSNLASGVPVRFSGSGSGTSYSLTISRVEAEDAATYYCQQWSSNPRTFGGGTKLEIR
Take B5: the binding result in assay [1] is listed as “no binding (tested: 300 nM)”. In assay [2], the IC50 was determined as 12.8 nM.

B6: MTK-20 (antibody, human IgG1, V domains shown)
VH: QIQLVQSGPELKKPGETVKISCKASGYTFTNYGMTWVKQAPGKGLKWMGWINTYTGEPTYADDFKGRFALSLETSASTAYLQINNLKNEDTATYFCARGGGRLGLRPLDYWGQGTTLTVSS
VL: DIQMTQTTSSLSASLGDRVTISCRASQDINNYLNWYQQKPDGTVKLLIYYTSRLHSGVPSRFSGSGSGTDYSLTISNLEQEDIATYFCQQGNTLPWTFGGGTKLEIK
As to B6, the binding result in assay [1] is “no binding (tested: 300 nM)”. For the same molecule, the IC50 in assay [2] was 5.16 nM.

B7: MTK-21 (antibody, human IgG1, V domains shown)
VH: QIQLVQSGPELKKPGETVKISCKASGYTFTNFGMTWVRQAPGMDLKWMGWINTYTGEPKYADDFKGRFALSLETSASTAYLQITNFKNEDTATYFCARGGGRLGLRPLDYWGQGTTLTVSS
VL: DIQMTQTTSSLSASLGDRVTISCRASQDINNYLNWYQQKPDGTVKLLIYYTSSLHSGVPSRFSGSGSGTDYSLTITNLEQEDIATYFCQQGNTLPWTFGGGTRLEIK
In the case of B7, the binding result in assay [1] was “no binding (tested: 300 nM)”. Also, the concentration for half-maximal inhibition (IC50) in assay [2] amounted to 13.5 nM.

B8: MTK-18 (antibody, human IgG1, V domains shown)
VH: QIQLVQSGPELKKPGETVKISCKASGYTFTHYGMTWVKQAPGKGLKWMGWINTYTGEPTYADDFKGRFAFSLETSASTAYLQINNLKNEDTATYFCARGGGQLGLRPLDYWGQGTTLTVSS
VL: DIQMTQTTSSLSASLGDRVTFSCRASQAISNYLNWYQQKPDGTVKLLIYYTSRLHSGVPSRFSGSGSGTDYSLTISNLEQEDIATYFCQQGNTLPWTFGGGTKLEIK
B8: in assay [1], the binding result is given as “no binding (tested: 300 nM)”. In addition, the IC50 in assay [2] stood at 4.76 nM.

B9: MTK-03 (antibody, human IgG1, V domains shown)
VH: DVQLQESGPGLVKPSQSLSLTCSVTGYSITSGYYWNWIRQFPGNTLEWMGYMSFDGDNKFNPSLKNRISITRDTSKNQFFLRLNSVTTEDTATYYCARGGYNYGSTEANWGQGTLVTVSA
VL: QIVLTQSPAIMSAFPGEKVTITCSASSSVNYMHWFQQKPGTSPKLWIYSTSNLASGVPARFSGSGSGTSYSLTISRMEAEDAATYYCQQRSSYPFTFGSGTKLEIK
Turning to B9, in assay [1], the binding result is on record as “no binding (tested: 300 nM)”. For the same molecule, the IC50 in assay [2] came to 3.65 nM.

B10: MTK-07 (antibody, human IgG1, V domains shown)
VH: DVQLQESGPGLVKPSQSLSLTCSVTGYSITSGYYWNWIRQFPGNTLEWMGYMSFDGDNKFNPSLKNRISITRDTSKNQFFLRLNSVTTEDTATYYCARGGYNYGSTEANWGQGTLVTVST
VL: QIVLTQSPAIMSAFPGEKVTITCSASSSVTYMHWFQQKPGTSPKLWIFSTSNLASGVPARFSGSGSGTSYSLTISRMEAEDAATYYCQQRSSYPFTFGSGTKLEIK
B10: the binding result in assay [1] is given as “no binding (tested: 300 nM)”. Also, the IC50 in assay [2] was 3.27 nM.

B11: MTK-17 (antibody, human IgG1, V domains shown)
VH: QIQLVQSGPELKKPGETVKISCKASGYTFTNFGMNWVKQAPGKGLKWMGWINTYTGEPTYADDFKGRFAFSLETSASTAYLQINNLKNEDTATYFCSRGAVLRAGAMDCWGQGTSVTVSS
VL: DIQMTQSSSYLSVSLGGRVTITCKASDHINNWLAWYQQKPGNAPRLLISGATSLETGVPSRFSGSGSGKDYTLSITSLQTEDVATYYCQQYWSTPRTFGGGTKLEIK
As for B11, the binding result in assay [1] is listed as “no binding (tested: 300 nM)”. In addition, in assay [2], the IC50 came out at 8.35 nM.

B12: MTK-31 (antibody, human IgG1, V domains shown)
VH: QIQLVQSGPELKKSGETVKISCKASGYTFTSYGMSWVKQAPGKGLKWMGWINTYSGVPTYADDFKGRFAFSLETSASTAYLQINNLKNEDTATYFCASLSYDGSLYHAMDYWGQGTSVTVSS
VL: DVSMTQTPLSLPVSLGDQASISSRSSQTIVHSNGNTYLEWYLQKPGQSPKLLIYKVSNRFSGVPDRFSGSGSGTDFTLKISRVEAEDLGVYYCFQGSHVPWTFGGGTKLEIK
In the case of B12, in assay [1], the Kd was found to be 165 nM.
